# Biological target: inactive Minerva virus protease (norovirus GII.4 NS6 protease, C139A) (norovirus GII.4 (Minerva virus))
# Assay: crystal structure
substance,measurement,value
"inactive Minerva virus protease (norovirus GII.4 NS6 protease, C139A) (enzyme)",stoichiometry N,2
